Assay results: paper PMC2132825 (The Journal of Cell Biology, 1998)

Target: T1, purified recombinant mouse PKCζ (mouse, UniProt Q02956 1-592)
T1 sequence (looked up): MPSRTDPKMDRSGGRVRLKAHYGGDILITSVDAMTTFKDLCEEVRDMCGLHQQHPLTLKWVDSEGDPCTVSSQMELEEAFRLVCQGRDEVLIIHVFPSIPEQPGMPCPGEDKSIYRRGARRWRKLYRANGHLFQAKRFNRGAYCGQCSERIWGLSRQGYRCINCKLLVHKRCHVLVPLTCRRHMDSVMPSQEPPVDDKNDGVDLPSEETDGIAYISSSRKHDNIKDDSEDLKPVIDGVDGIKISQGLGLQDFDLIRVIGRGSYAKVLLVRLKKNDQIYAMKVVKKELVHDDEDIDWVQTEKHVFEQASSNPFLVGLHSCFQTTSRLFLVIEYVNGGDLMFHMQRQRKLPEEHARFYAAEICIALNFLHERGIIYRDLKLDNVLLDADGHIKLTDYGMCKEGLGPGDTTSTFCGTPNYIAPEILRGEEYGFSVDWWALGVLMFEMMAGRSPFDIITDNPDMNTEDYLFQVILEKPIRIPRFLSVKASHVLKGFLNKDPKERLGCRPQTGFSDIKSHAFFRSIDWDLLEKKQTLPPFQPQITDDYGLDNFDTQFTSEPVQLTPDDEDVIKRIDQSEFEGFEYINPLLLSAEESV
Assay: far-Western, overlay or dot blot

binding result: binds
B1: GST-ASIP 712/936 (domain or fragment, rat, UniProt Q9Z340 712-936, looked up)
chain: RRISHSLYSGIEGLDESPTRNAALSRIMGESGKCQLSPTVNMPHDDTVMIEDDRLPVLPPHLSDQSSSSSHDDVGFIMTEAGTWAKATISDSADCSLSPDVDPVLAFQREGFGRQSMSEKRTKQFSNASQLDFVKTRKSKSMDLGIADETKLNTVDDQRAGSPNRDVGPSLGLKKSSSLESLQTAVAEVTLNGNIPFHRPRPRIIRGRGCNESFRAAIDKSYDKP
